This note sets out measurements from patent publication US20250304664A1 (VIB VZW, published 2025).

First the molecules themselves.
T1: NTCP consensus-mutant construct used for cryo-electron microscopy structure determination (NTCPEM) (human (consensus design), UniProt Q14973 2-328)
T1 chain: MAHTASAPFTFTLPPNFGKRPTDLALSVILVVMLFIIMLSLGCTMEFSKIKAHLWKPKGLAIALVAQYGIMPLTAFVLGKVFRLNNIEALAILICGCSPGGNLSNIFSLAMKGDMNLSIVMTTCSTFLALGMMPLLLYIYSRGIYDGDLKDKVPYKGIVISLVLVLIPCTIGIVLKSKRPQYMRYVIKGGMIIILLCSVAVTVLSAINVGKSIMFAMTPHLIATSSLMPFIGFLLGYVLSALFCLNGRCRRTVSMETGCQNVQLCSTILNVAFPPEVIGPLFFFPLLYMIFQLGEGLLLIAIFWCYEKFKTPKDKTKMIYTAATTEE

T2: human wild type Sodium taurocholate co-transporting polypeptide (NTCPWT) (human, UniProt Q14973 1-349)
T2 construct: Transiently expressed in HEK293 cells; also called SLC10A1; human wildtype NTCP
T2 sequence: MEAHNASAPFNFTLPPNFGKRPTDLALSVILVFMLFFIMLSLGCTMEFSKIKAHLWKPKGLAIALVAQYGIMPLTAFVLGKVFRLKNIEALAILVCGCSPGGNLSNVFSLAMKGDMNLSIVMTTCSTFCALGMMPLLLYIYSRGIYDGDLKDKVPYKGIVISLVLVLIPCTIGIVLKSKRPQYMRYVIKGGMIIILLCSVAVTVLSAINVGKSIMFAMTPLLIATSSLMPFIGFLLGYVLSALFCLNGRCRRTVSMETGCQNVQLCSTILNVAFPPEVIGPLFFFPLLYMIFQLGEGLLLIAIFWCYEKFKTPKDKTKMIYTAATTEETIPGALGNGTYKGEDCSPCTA

T3: N-glycosylation knocked-out NTCP (NTCPWT_KOG) (human, UniProt Q14973 1-349)
T3 chain: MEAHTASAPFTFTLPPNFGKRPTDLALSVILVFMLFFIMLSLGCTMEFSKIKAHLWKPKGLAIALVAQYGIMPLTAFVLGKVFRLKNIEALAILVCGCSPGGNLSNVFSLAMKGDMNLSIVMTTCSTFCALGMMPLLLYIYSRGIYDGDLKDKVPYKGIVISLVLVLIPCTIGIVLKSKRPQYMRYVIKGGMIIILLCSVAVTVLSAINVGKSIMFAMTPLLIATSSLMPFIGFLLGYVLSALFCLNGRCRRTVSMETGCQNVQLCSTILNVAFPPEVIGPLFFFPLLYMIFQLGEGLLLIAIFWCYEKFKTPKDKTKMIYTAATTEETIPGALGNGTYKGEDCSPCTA

B1: NbNTCP_87 (VHH)
VHH: QVQLVESGGGLVQAGGSLRLSCAVSGRTTANYNMGWFRQAPGKEREFVAGIKWSSGSTYVADSAKGRFTISRDNAKNSVYLQMDSLKPEDTALYYCAANYYGVSWFLISPSSYDYWGQGTQVTVSS
notes: Family 21; expressed in E. coli periplasm; also called Nb87
B2: NbNTCP_87 - S55Q variant (VHH)
VHH: QVQLVESGGGLVQAGGSLRLSCAVSGRTTANYNMGWFRQAPGKEREFVAGIKWSQGSTYVADSAKGRFTISRDNAKNSVYLQMDSLKPEDTALYYCAANYYGVSWFLISPSSYDYWGQGTQVTVSS
notes: Single mutant of Nb87; also called Nb87 S55Q
B3: NbNTCP_87 - S55E variant (VHH)
VHH: QVQLVESGGGLVQAGGSLRLSCAVSGRTTANYNMGWFRQAPGKEREFVAGIKWSEGSTYVADSAKGRFTISRDNAKNSVYLQMDSLKPEDTALYYCAANYYGVSWFLISPSSYDYWGQGTQVTVSS
notes: Single mutant of Nb87; also called Nb87 S55E
B4: NbNTCP_87 - S111R variant (VHH)
VHH: QVQLVESGGGLVQAGGSLRLSCAVSGRTTANYNMGWFRQAPGKEREFVAGIKWSSGSTYVADSAKGRFTISRDNAKNSVYLQMDSLKPEDTALYYCAANYYGVSWFLISPRSYDYWGQGTQVTVSS
notes: Single mutant of Nb87; also called Nb87 S111R
B5: NbNTCP_87 -A30Q variant (VHH)
VHH: QVQLVESGGGLVQAGGSLRLSCAVSGRTTQNYNMGWFRQAPGKEREFVAGIKWSSGSTYVADSAKGRFTISRDNAKNSVYLQMDSLKPEDTALYYCAANYYGVSWFLISPSSYDYWGQGTQVTVSS
notes: Single mutant of Nb87; also called Nb87 A30Q
B6: NbNTCP_91- N27D variant (VHH)
VHH: QVQLVESGGGLVEAGGSLRLSCAASTDLRSYAMAWFRQAPGKEREFVSFINWNYGNTRYADSVKGRFTISRDNAKITVYLQMNSLKPEDTAVYYCAAATIGRLAGIDSTTLYDYWGQGTQVTVSS
notes: Single mutant of Nb91; also called Nb91 N27D
B7: NbNTCP_91-N53D variant (VHH)
VHH: QVQLVESGGGLVEAGGSLRLSCAASTNLRSYAMAWFRQAPGKEREFVSFINWDYGNTRYADSVKGRFTISRDNAKITVYLQMNSLKPEDTAVYYCAAATIGRLAGIDSTTLYDYWGQGTQVTVSS
notes: Single mutant of Nb91; also called Nb91 N53D
B8: NbNTCP_91- R29S variant (VHH)
VHH: QVQLVESGGGLVEAGGSLRLSCAASTNLSSYAMAWFRQAPGKEREFVSFINWNYGNTRYADSVKGRFTISRDNAKITVYLQMNSLKPEDTAVYYCAAATIGRLAGIDSTTLYDYWGQGTQVTVSS
notes: Single mutant of Nb91; also called Nb91 R29S
B9: NbNTCP_91- R29G variant (VHH)
VHH: QVQLVESGGGLVEAGGSLRLSCAASTNLGSYAMAWFRQAPGKEREFVSFINWNYGNTRYADSVKGRFTISRDNAKITVYLQMNSLKPEDTAVYYCAAATIGRLAGIDSTTLYDYWGQGTQVTVSS
notes: Single mutant of Nb91; also called Nb91 R29G; NbNTOP_91- R29G variant
B10: NbNTCP_91- N27Q variant (VHH)
VHH: QVQLVESGGGLVEAGGSLRLSCAASTQLRSYAMAWFRQAPGKEREFVSFINWNYGNTRYADSVKGRFTISRDNAKITVYLQMNSLKPEDTAVYYCAAATIGRLAGIDSTTLYDYWGQGTQVTVSS
notes: Single mutant of Nb91; also called Nb91 N27Q
B11: NbNTCP_91- N27E variant (VHH)
VHH: QVQLVESGGGLVEAGGSLRLSCAASTELRSYAMAWFRQAPGKEREFVSFINWNYGNTRYADSVKGRFTISRDNAKITVYLQMNSLKPEDTAVYYCAAATIGRLAGIDSTTLYDYWGQGTQVTVSS
notes: Single mutant of Nb91; also called Nb91 N27E
B12: NbNTCP_91- R29N variant (VHH)
VHH: QVQLVESGGGLVEAGGSLRLSCAASTNLNSYAMAWFRQAPGKEREFVSFINWNYGNTRYADSVKGRFTISRDNAKITVYLQMNSLKPEDTAVYYCAAATIGRLAGIDSTTLYDYWGQGTQVTVSS
notes: Single mutant of Nb91; also called Nb91 R29N
B13: NbNTCP_91- L103N variant (VHH)
VHH: QVQLVESGGGLVEAGGSLRLSCAASTNLRSYAMAWFRQAPGKEREFVSFINWNYGNTRYADSVKGRFTISRDNAKITVYLQMNSLKPEDTAVYYCAAATIGRNAGIDSTTLYDYWGQGTQVTVSS
notes: Single mutant of Nb91; also called Nb91 L103N

For the first experiment, the target named is T1, NTCP consensus-mutant construct used …. Nature of the experiment: cell-based or functional assay.
B1: the “half-maximal inhibitory concentrations (IC50) of Na+-induced fluorescent-substrate uptake by cells expressing NTCPEM” value was approximately 180 nM.

The next experiment addresses T2, human wild type Sodium taurocholate …. Kind of experiment: cell surface labelling, 20 µM Nb87 and 10 µM (AntiC)2-mCherryXL, fluorescence microscopy.
Procedure: (§1) Adherent HEK293T cells were seeded at 0.3×10⁶/mL using 500 μl per well in a 24-well plate and incubated for 2 days. 5 μg of cDNA coding for NTCP, or control neurotransmitter (EAAT1) was transfected as follows: (1) 5 μg DNA was mixed with 50 μl Opti-MEM and incubated for 5 min; (2)² μl lipofeactamine was mixed with 50 μl of Opti-MEM and incubated for 5 min: (3) DNA and lipofectamine solutions were mixed in 1:1 ratio and incubated for 20 min. 100 μl of the mixture was added to each well. After incubation for 6-8 h the medium was changed to DMEM medium, and incubated for 2 days post transfection. […] Excess of primary unlabeled Nb was removed and 10 μM of the secondary labelled Nb ((AntiC)2-mCherryXL) was added following a 1 h incubation. Cells were washed once with fresh medium prior to detection of fluorescence on an inverted microscope.
For B1, the binding result is reported as “binds”.

Another experiment concerns the target T3, N-glycosylation knocked-out NTCP …. Nature of the experiment: competition with Nb87, substrate uptake read-out in HEK293 cells expressing NTCPWT-KOG, Nbs at 2 µM.
As for B2, the binding result is “binds”.
For the molecule B3, the binding result is “binds”.
Regarding B4, the binding result is “binds”.
B5: the binding result was “binds”.

For the next experiment the target is unchanged. Kind of experiment: competition with Nb91, substrate uptake read-out in HEK293 cells expressing NTCPWT-KOG, Nbs at 10 µM.
For the molecule B6, the binding result is reported as “binds”.
The same measure, in the same setting: for B7 the value was “binds”.
In the case of B8, the binding result is given as “binds”.
Still for that read-out and setting: then B9, with “binds”.
The same measure, in the same setting: then B10, with “binds”.
Same read-out and setting: then B11, with “binds”.
Turning to B12, the binding result was “binds”.
The same measure, in the same setting: then B13, with “binds”.

For a further experiment, the target named is T4, excitatory amino acid transporter, EAAT1 (UniProt P43003 1-542, limits assumed).
T4 construct: whole, on cells; Negative control expressed on HEK293T cells; also called unrelated neurotransmitter transporter
T4 sequence (P43003 whole entry): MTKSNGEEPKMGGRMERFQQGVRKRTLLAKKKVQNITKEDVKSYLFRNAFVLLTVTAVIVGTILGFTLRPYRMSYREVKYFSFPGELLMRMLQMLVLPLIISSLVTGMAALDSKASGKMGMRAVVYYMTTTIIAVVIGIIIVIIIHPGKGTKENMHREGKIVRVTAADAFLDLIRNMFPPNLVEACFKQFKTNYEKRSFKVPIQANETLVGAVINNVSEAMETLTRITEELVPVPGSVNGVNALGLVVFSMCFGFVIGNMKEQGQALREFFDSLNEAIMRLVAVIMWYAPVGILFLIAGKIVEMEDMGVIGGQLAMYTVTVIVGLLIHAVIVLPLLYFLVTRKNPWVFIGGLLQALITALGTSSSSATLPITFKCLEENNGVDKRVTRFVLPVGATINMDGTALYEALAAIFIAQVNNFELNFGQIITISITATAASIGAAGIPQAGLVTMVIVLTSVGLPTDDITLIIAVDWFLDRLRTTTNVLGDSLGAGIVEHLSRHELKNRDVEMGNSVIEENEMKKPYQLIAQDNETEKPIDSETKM
Nature of the experiment: cell surface labelling of transfected HEK293T cells, Nb87 as primary Nb and (AntiC)2-mCherryXL as secondary Nb, fluorescence microscopy.
Procedure: as §1
Regarding B1, the binding result is “no binding (tested: 20 µM Nb87)”.
